Experimental data: patent publication US20030148958A1 (PROCTER AND GAMBLE, published 2003)
Residue numbers refer to the chain shown, from its start. Ends that are not written are not given here.

B1: SEQ ID NO 96 (peptide)
peptide: SQEPPISLDLPFYLLREVLEMTKADQLAQQAHSNRKLLDIA-NH2
B2: SEQ ID NO 1 (peptide)
peptide: IVLSLDVPIGLLQELLEMARAEQLAQQAHSNRKLMEII-NH2
B3: SEQ ID NO 95 (peptide)
peptide: SQEPPISLDLPLQLLREVLEMTKADQLAQQAHSNRKLLDIA-NH2
B4: SEQ ID NO 88 (peptide)
peptide: SQEPPISLDLTFGLLREVLEMTKADQLAQQAHSNRKLLDIA-NH2
B5: SEQ ID NO 94 (peptide)
peptide: SQEPPISLDLPIHLLREVLEMTKADQLAQQAHSNRKLLDIA-NH2
B6: SEQ ID NO 93 (peptide)
peptide: SQEPPISLDLPIGLLREVLEMTKADQLAQQAHSNRKLLDIA-NH2
B7: SEQ ID NO 87 (peptide)
peptide: SQEPPISLDLTIHLLREVLEMTKADQLAQQAHSNRKLLDIA-NH2
B8: SEQ ID NO 7 (peptide)
peptide: SQEIVLSLDVPIGLLREVLEMTKADQLAQQAHSNRKLLDIA-NH2
B9: SEQ ID NO 92 (peptide)
peptide: SQEPPISLDLPTELLREVLEMTKADQLAQQAHSNRKIIDIA-NH2
B10: SEQ ID NO 86 (peptide)
peptide: SQEPPISLDLTIGLLREVLEMTKADQLAQQAHSNRKLLDIA-NH2
B11: SEQ ID NO 81 (peptide)
peptide: ZGPPISIDLPLYLLRKMIEIEKQEKEKQQAANNRLLLDT
modifications: C-terminal amide
B12: SEQ ID NO 5 (peptide)
peptide: IVLSLDVPGPLLQILLEQTKQEAAREQATTNARILARV-NH2
B13: SEQ ID NO 59 (peptide)
peptide: ZGPPISIDLPTNLLRKMIEIEKQEKEKQQAANNRLLLDTI
modifications: C-terminal amide
B14: SEQ ID NO 74 (peptide)
peptide: B13 peptide with N12H
modifications: C-terminal amide
B15: SEQ ID NO 70 (peptide)
peptide: B13 peptide with N12Y
modifications: C-terminal amide
B16: SEQ ID NO 79 (peptide)
peptide: B13 peptide with T11I, N12Y
modifications: C-terminal amide
B17: SEQ ID NO 80 (peptide)
peptide: B13 peptide with T11L, N12Q
modifications: C-terminal amide
B18: SEQ ID NO 63 (peptide)
peptide: B13 peptide with T11G, N12Y
modifications: C-terminal amide
B19: SEQ ID NO 72 (peptide)
peptide: B13 peptide with N12Q
modifications: C-terminal amide
B20: SEQ ID NO 82 (peptide)
peptide: B13 peptide with T11L, N12E
modifications: C-terminal amide
B21: SEQ ID NO 78 (peptide)
peptide: B13 peptide with T11I, N12Q
modifications: C-terminal amide
B22: SEQ ID NO 77 (peptide)
peptide: B13 peptide with T11I, N12H
modifications: C-terminal amide
B23: SEQ ID NO 75 (peptide)
peptide: B13 peptide with T11I, N12G
modifications: C-terminal amide
B24: SEQ ID NO 83 (peptide)
peptide: B13 peptide with T11L, N12H
modifications: C-terminal amide
B25: SEQ ID NO 68 (peptide)
peptide: B13 peptide with T11F, N12G
modifications: C-terminal amide
B26: SEQ ID NO 85 (peptide)
peptide: B13 peptide with T11F, N12Y
modifications: C-terminal amide
B27: SEQ ID NO 69 (peptide)
peptide: B13 peptide with T11F, N12H
modifications: C-terminal amide
B28: SEQ ID NO 67 (peptide)
peptide: B13 peptide with T11F, N12E
modifications: C-terminal amide
B29: SEQ ID NO 73 (peptide)
peptide: B13 peptide with N12G
modifications: C-terminal amide
B30: SEQ ID NO 61 (peptide)
peptide: B13 peptide with N12A
modifications: C-terminal amide
B31: SEQ ID NO 84 (peptide)
peptide: B13 peptide with T11F, N12Q
modifications: C-terminal amide
B32: SEQ ID NO 65 (peptide)
peptide: B13 peptide with T11R, N12Y
modifications: C-terminal amide
B33: SEQ ID NO 71 (peptide)
peptide: B13 peptide with N12E
modifications: C-terminal amide
B34: SEQ ID NO 60 (peptide)
peptide: B13 peptide with N12R
modifications: C-terminal amide
B35: SEQ ID NO 76 (peptide)
peptide: B13 peptide with T11I, N12E
modifications: C-terminal amide
B36: SEQ ID NO 64 (peptide)
peptide: B13 peptide with T11N, N12Y
modifications: C-terminal amide
B37: SEQ ID NO 90 (peptide)
peptide: SQEPPISLDLPLGLLREVLEMTKADQLAQQAHSNRKLLDIA-NH2
B38: SEQ ID NO 91 (peptide)
peptide: SQEPPISLDLPFQLLREVLEMTKADQLAQQAHSNRKLLDIA-NH2

Molecular target: T1, corticotropin releasing factor 2 receptor
T1 sequence (Q13324 whole entry, species assumed, looked up): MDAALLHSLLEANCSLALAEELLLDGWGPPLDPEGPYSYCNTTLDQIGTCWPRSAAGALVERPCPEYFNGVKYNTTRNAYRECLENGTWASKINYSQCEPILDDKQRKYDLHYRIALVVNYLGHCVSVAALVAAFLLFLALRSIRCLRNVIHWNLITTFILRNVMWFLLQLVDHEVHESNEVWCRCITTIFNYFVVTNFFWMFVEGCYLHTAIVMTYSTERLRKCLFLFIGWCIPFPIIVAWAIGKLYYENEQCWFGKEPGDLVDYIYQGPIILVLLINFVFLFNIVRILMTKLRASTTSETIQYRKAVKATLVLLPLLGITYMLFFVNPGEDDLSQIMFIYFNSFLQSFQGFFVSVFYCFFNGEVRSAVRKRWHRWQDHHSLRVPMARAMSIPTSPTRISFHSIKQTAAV
Test: cell-based or functional assay
Throughout, for CRF1R Emax: reference of the scale not given here.
Throughout, for CRF2R Emax: reference of the scale not given here.

CRF2R EC50	CRF2R Emax	Binder
100 nM	12.5%	B1
31.5 nM	100%	B2
100 nM	8.25%	B3
100 nM	12.6%	B4
100 nM	6.15%	B5
100 nM	6.4%	B6
100 nM	14.7%	B7
100 nM	19%	B8
100 nM	15.8%	B9
100 nM	8.1%	B10
4.3 nM	73%	B11
100 nM	12%	B12
> 100 nM	27%	B13
55 nM	100%	B14
18.2 nM	82%	B15
22.3 nM	100%	B16
6.53 nM	88%	B17
67.3 nM	100%	B18
> 100 nM	55%	B19

CRF2R EC50	CRF2R Emax	Binder
10.9 nM	90%	B20
24.6 nM	78%	B21
43.4 nM	100%	B22
> 100 nM	52%	B23
1.91 nM	81%	B24
38.5 nM	74%	B25
2.34 nM	100%	B26
5.85 nM	81%	B27
10 nM	50%	B28
> 100 nM	11%	B29
> 100 nM	89%	B30
1.77 nM	100%	B31
67.9 nM	64%	B32
94.8 nM	56%	B33
> 100 nM	44%	B34
91.5 nM	76%	B35
63.3 nM	94%	B36
100 nM	12.2%	B37
100 nM	7.1%	B38

Molecular target: corticotropin releasing factor 1 receptor
Test: cell-based or functional assay

CRF1R EC50	CRF1R Emax	Binder
100 nM	16.3%	B1
783 nM	64%	B2
100 nM	5.55%	B3
100 nM	11.2%	B4
100 nM	7.3%	B5
100 nM	5%	B6
100 nM	5.3%	B7
100 nM	4%	B8
100 nM	4.6%	B9
100 nM	4.6%	B10
60.9 nM	81%	B11
100 nM	9%	B12
> 100 nM	10%	B13
> 100 nM	7%	B14
> 100 nM	8%	B15
> 100 nM	8%	B16
> 100 nM	55%	B17
73.2 nM	34%	B18
> 100 nM	4%	B19

CRF1R EC50	CRF1R Emax	Binder
96.2 nM	85%	B20
> 100 nM	6%	B21
> 100 nM	5%	B22
> 100 nM	5%	B23
52.2 nM	96%	B24
> 100 nM	33%	B25
11 nM	84%	B26
34.5 nM	88%	B27
44.2 nM	96%	B28
> 100 nM	11%	B29
> 100 nM	12%	B30
82.2 nM	99%	B31
> 100 nM	16%	B32
> 100 nM	6%	B33
> 100 nM	8%	B34
> 100 nM	7%	B35
68.9 nM	57%	B36
100 nM	4%	B37
100 nM	4%	B38
